This passage reports stoichiometry N results from article PMC7844570.

For orientation: stoichiometry N means the number of molecules, sites or subunits per partner or assembly.

The target of the assay is L-lysine α-oxidase precursor from Trichoderma viride (Trichoderma viride). Briefly: crystal structure; prLysOX crystals by sitting-drop vapor diffusion at 20 °C, 0.1 M Tris-HCl pH 8.0-9.0, 2-2.1 M ammonium dihydrogen phosphate; space group C222(1); one molecule in the asymmetric unit, dimer formed by crystallographic two-fold symmetry; 1.97 Å.

For “L-lysine α-oxidase precursor from Trichoderma viride (enzyme)”, the stoichiometry N was 2.
